Measurements published in article PMC9951875.

Target: UspA2 (ubiquitous surface protein A2), displayed on E. coli BL21(DE3) (Moraxella catarrhalis Bc5) (UniProt Q9XD55)
Assay: fluorescence cell-binding titration (eluted FAM-aptamer)

Sequence	Kd [nM]
ATCCAGAGTGACGCAGCATGGGACGGTGCGGGGGAGGAGGATGAGCGTGGTCGTTGGGTGGCTGCCGCAATGTCGTTGGTGGCCC [FAM-Apt1]	214
GGGCCACCAACGACATTGCGGCAGCCACCCAACGACCACGCTCATCCTCCTCCCCCGCACCGTCCCATGCTGCGTCACTCTGGAT [FAM-Apt1_RC]	3.4
